Laboratory results reported in US20240383958A1, “APELIN RECEPTOR AGONISTS AND USES THEREOF” (VISTERRA, INC., priority 2023, published 2024).
Numbering of substitutions follows the chain as printed. Names may count otherwise.

T1: apelin receptor (AGTRL1) on CHO-K1 cells (UniProt P35414 1-380, limits assumed)
T1 sequence (looked up): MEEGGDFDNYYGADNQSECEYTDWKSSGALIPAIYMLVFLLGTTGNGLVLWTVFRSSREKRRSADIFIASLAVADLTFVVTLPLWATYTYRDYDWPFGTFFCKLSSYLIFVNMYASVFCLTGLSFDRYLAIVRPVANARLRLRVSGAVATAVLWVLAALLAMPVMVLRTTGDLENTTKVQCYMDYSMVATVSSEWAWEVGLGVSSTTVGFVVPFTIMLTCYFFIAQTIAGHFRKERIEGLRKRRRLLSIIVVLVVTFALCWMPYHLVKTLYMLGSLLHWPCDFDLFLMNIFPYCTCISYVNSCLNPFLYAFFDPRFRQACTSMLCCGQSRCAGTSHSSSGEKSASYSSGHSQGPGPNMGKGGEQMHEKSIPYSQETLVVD

B1: ELA-I (Fc fusion)
chain: DKTHTSPPSPAPEAAGGPSVFLFPPKPKDTLMISRTPEVTCVVVDVSHEDPEVKFNWYVDGVEVHNAKTKPREEQYNSTYRVVSVLTVLHQDWLNGKEYKCKVSNKALPAPIEKTISKAKGQPREPQVYTLPPSREEMTKNQVNLTCLVKGFYPSDIAVEWESNGQPENNYKTTPPVLDSDGSFFLNSTLTVDKSRWQQGNVFSCSVMHEALHNHYTQKSLSLSPGKGGGGSGGGGSGGGGSKLRKHNSLQRRYMPLHSRVPFP
B2: ELA-J (Fc fusion)
chain: B1 chain with S249C, R252E, Y254C
B3: APL-B: Fc-linker fusion of apelin analogue QRPRLSHKGPMVF (P12V) (protein)
chain: MRAWIFFLLCLAGRALADKTHTSPPSPAPEAAGGPSVFLFPPKPKDTLMISRTPEVTCVVVDVSHEDPEVKFNWYVDGVEVHNAKTKPREEQYNSTYRVVSVLTVLHQDWLNGKEYKCKVSNKALPAPIEKTISKAKGQPREPQVYTLPPSREEMTKNQVNLTCLVKGFYPSDIAVEWESNGQPENNYKTTPPVLDSDGSFFLNSTLTVDKSRWQQGNVFSCSVMHEALHNHYTQKSLSLSPGKGGGGSGGGGSGGGGSQRPRLSHKGPMVF
B4: APL-E: Fc-linker fusion of apelin analogue QRPRLSHKGPHPF (M11H) (protein)
chain: B3 chain with M270H, V271P
B5: APL-G: Fc-linker fusion of apelin analogue QRPRLSHKGPMAF (P12A) (protein)
chain: B3 chain with V271A
B6: APL-F: Fc-linker fusion of apelin analogue QRPRLSHKGPAPY (M11A, F13Y) (protein)
chain: B3 chain with M270A, V271P, F272Y
B7: ELA-A: Fc-linker fusion of wild-type elabela-22 KLRKHNCLQRRCMPLHSRVPFP (protein)
chain: MRAWIFFLLCLAGRALADKTHTSPPSPAPEAAGGPSVFLFPPKPKDTLMISRTPEVTCVVVDVSHEDPEVKFNWYVDGVEVHNAKTKPREEQYNSTYRVVSVLTVLHQDWLNGKEYKCKVSNKALPAPIEKTISKAKGQPREPQVYTLPPSREEMTKNQVNLTCLVKGFYPSDIAVEWESNGQPENNYKTTPPVLDSDGSFFLNSTLTVDKSRWQQGNVFSCSVMHEALHNHYTQKSLSLSPGKGGGGSGGGGSGGGGSKLRKHNCLQRRCMPLHSRVPFP
B8: ELA-F: Fc-linker fusion of elabela analogue KLRKHNCLKRRCMPLHSRVPFP (Q9K) (protein)
chain: B7 chain with Q268K
B9: ELA-B: Fc-linker fusion of elabela analogue KLNKHNCLQRRCMPLHSRVPFP (R3N) (protein)
chain: B7 chain with R262N
B10: ELA-C: Fc-linker fusion of elabela analogue KLRKHNCLQRRCMILHSRVPFP (P14I) (protein)
chain: B7 chain with P273I
B11: ELA-L: Fc-linker fusion of elabela analogue KLRKHNCATRRCMPLHSRVPFP (L8A, Q9T) (protein)
chain: B7 chain with L267A, Q268T
B12: ELA-G: Fc-linker fusion of elabela analogue KLRKHNCLQRRCMPLHSYVPFP (R18Y) (protein)
chain: B7 chain with R277Y
B13: ELA-H: Fc-linker fusion of elabela analogue KLRKHNCLQRRCMPYHSRVPFP (L15Y) (protein)
chain: B7 chain with L274Y
B14: ELA-K: Fc-linker fusion of elabela analogue KLRKHNCLIRRCMPLHSRVPFP (Q9I) (protein)
chain: B7 chain with Q268I
B15: ELA-I: Fc-linker fusion of elabela analogue KLRKHNSLQRRYMPLHSRVPFP (C7S, C12Y) (protein)
chain: B7 chain with C266S, C271Y

molecular target: T1, apelin receptor (AGTRL1) on CHO-K1 cells; experiment: cell-based or functional assay; conditions: not given

Row | Molecule | beta-Arrestin EC50 (nM) Exp. 1 [nM] | beta-Arrestin EC50 (nM) Exp. 2 [nM] | cAMP EC50 (nM) Exp. 1 [nM] | cAMP EC50 (nM) Exp. 2 [nM]
1 | B1 | 17.3 | 150 | 22.9 | 3.19
2 | B2 | 73.7 |  | 18.6 | 133

system: not listed separately; experiment: Proteolysis during production detected using mass spectroscopy; type: physicochemical; conditions: proteolytic stability
Source text: Proteolysis during production was detected using mass spectroscopy, which provides insights into the proteolytic stability of the apelin receptor agonists.

Row | Molecule | Proteolysis During Production?
3 | B3 | No
4 | B4 | Yes
5 | B5 | No
6 | B6 | No
7 | B7 | No
8 | B8 | No
9 | B9 | No
10 | B10 | No
11 | B11 | No
12 | B12 | No
13 | B13 | No
14 | B14 | No
15 | B15 | Yes

system: APJ-eGFP fusion protein; experiment: Internalization assay, CHO-M1 cells expressing APJ-eGFP, high-content imaging; type: cell-based; conditions: lowest concentration at which maximum internalization was observed; 0.914 nM to 2000 nM
Description: In this example, the internalization of exemplary apelin receptor agonist was assessed. CHO-M1 cells expressing an APJ-eGFP fusion protein were stained and plated in a 96-well plate. Apelin receptor agonists were serially diluted and added to the wells at concentrations ranging from 0.914 nM to 2000 nM. The cells were later imaged using an Operetta CLS™ high-content analysis system. APJ-eGFP signal was measured in the membrane and cytoplasmic region, and the ratio of membrane signal to total signal was calculated (E ratio). An internalization score was assigned based on the lowest concentration of the compound at which maximum internalization was observed. The internalization score for each apelin receptor agonist was plotted against the EC50 values for cAMP signaling and beta-arrestin signaling as shown in FIG. 2 and FIG. 3.

Row | Molecule | Internalization Score
16 | CSCC[C@H](NC(=O)[C@@H]1CSSC[C@H](NC(=O)[C@H](CC(N)=O)NC(=O)[C@H](Cc2c[nH]cn2)NC(=O)[C@H](CCCCN)NC(=O)[C@H](CCCNC(=N)N)NC(=O)[C@H](CC(C)C)NC(=O)[C@@H](N)CCCCN)C(=O)N[C@@H](CC(C)C)C(=O)N[C@@H](CCC(N)=O)C(=O)N[C@@H](CCCNC(=N)N)C(=O)N[C@@H](CCCNC(=N)N)C(=O)N1)C(=O)N1CCC[C@H]1C(=O)N[C@@H](CC(C)C)C(=O)N[C@@H](Cc1c[nH]cn1)C(=O)N[C@@H](CO)C(=O)N[C@@H](CCCNC(=N)N)C(=O)N[C@H](C(=O)N1CCC[C@H]1C(=O)N[C@@H](Cc1ccccc1)C(=O)N1CCC[C@H]1C(=O)O)C(C)C [Elabela-22, elabela-22, reference compound] | 1 (>1000)
17 | B3 | 2 (100-1000)
18 | B4 | 1 (>1000)
19 | B5 | 3 (10-100)
20 | B6 | 1 (>1000)
21 | B7 | 3 (10-100)
22 | B8 | 3 (10-100)
23 | B9 | 3 (10-100)
24 | B10 | 2 (100-1000)
25 | B11 | 2 (100-1000)
26 | B12 | 1 (>1000)
27 | B13 | 2 (100-1000)
28 | B14 | 2 (100-1000)
